Assay results reported in the supplement of paper PMC9112550, “Optimization of the antimicrobial peptide Bac7 by deep mutational scanning” (BMC Biology, 2022).

Tested on: Escherichia coli TOP10
Assay: shrunken log2 fold change of peptide-encoding DNA abundance (4.5 h post-induction vs induction); higher = less antimicrobial activity (less host growth inhibition)
Settings: time post-induction: 4.5 h; library: site-saturation at positions 5, 18, 19, 20
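Note: peptides expressed intracellularly from a pBAD plasmid library in pooled LB shake-flask culture, induced with 0.3% L-arabinose, DNA abundance read by NGS, three biological replicates, DESeq2 with apeglm shrinkage.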

Row | Sequence | shrunken log2 fold change
1 | RRIRGRPPRLPRPRPRPLKPPRP | 0.609
2 | RRIRVRPPRLPRPRPRPWNYPRP | -0.0949
3 | RRIRSRPPRLPRPRPRPWRIPRP | -0.0443
4 | RRIRDRPPRLPRPRPRPQQLPRP | -0.0103
5 | RRIRPRPPRLPRPRPRPINQPRP | -0.24
6 | RRIRMRPPRLPRPRPRPDYNPRP | -0.21
7 | RRIRFRPPRLPRPRPRPAMYPRP | -0.246
8 | RRIRFRPPRLPRPRPRPPEEPRP | 0.153
9 | RRIRVRPPRLPRPRPRPFSQPRP | -0.0697
10 | RRIRVRPPRLPRPRPRPIFQPRP | -0.052
11 | RRIRHRPPRLPRPRPRPITRPRP | -0.0356
12 | RRIRCRPPRLPRPRPRPMVQPRP | -0.292
13 | RRIRLRPPRLPRPRPRPPKRPRP | 0.492
14 | RRIRPRPPRLPRPRPRPGLGPRP | 0.389
15 | RRIRTRPPRLPRPRPRPTSTPRP | -0.0605
16 | RRIRERPPRLPRPRPRPSHAPRP | -0.0485
17 | RRIRWRPPRLPRPRPRPQDEPRP | -0.143
18 | RRIRRRPPRLPRPRPRPWFDPRP | -0.064
19 | RRIRCRPPRLPRPRPRPCIRPRP | -0.145
20 | RRIRCRPPRLPRPRPRPLEWPRP | 0.0823
21 | RRIRVRPPRLPRPRPRPLHPPRP | 0.149
22 | RRIRRRPPRLPRPRPRPNNKPRP | -0.24
23 | RRIRWRPPRLPRPRPRPDCKPRP | -0.0137

Row | Sequence | shrunken log2 fold change
24 | RRIRRRPPRLPRPRPRPWRGPRP | 0.215
25 | RRIRWRPPRLPRPRPRPKRVPRP | 0.383
26 | RRIRYRPPRLPRPRPRPPRMPRP | -0.215
27 | RRIRNRPPRLPRPRPRPGWEPRP | 1.72
28 | RRIRFRPPRLPRPRPRPFAKPRP | -0.026
29 | RRIRDRPPRLPRPRPRPLLHPRP | 0.114
30 | RRIRQRPPRLPRPRPRPQCSPRP | -0.203
31 | RRIRLRPPRLPRPRPRPPRHPRP | 0.377
32 | RRIRIRPPRLPRPRPRPIENPRP | -0.223
33 | RRIRSRPPRLPRPRPRPTLCPRP | 0.0788
34 | RRIRIRPPRLPRPRPRPRSDPRP | -0.284
35 | RRIRRRPPRLPRPRPRPKYLPRP | -0.042
36 | RRIRHRPPRLPRPRPRPKACPRP | -0.01
37 | RRIRVRPPRLPRPRPRPRCKPRP | 0.039
38 | RRIRYRPPRLPRPRPRPYMEPRP | -0.0102
39 | RRIRIRPPRLPRPRPRPYVQPRP | -0.311
40 | RRIRRRPPRLPRPRPRPKMWPRP | 0.216
41 | RRIRWRPPRLPRPRPRPAIHPRP | 0.039
42 | RRIRWRPPRLPRPRPRPGAQPRP | 0.655
43 | RRIRVRPPRLPRPRPRPMYMPRP | -0.748
44 | RRIRLRPPRLPRPRPRPLEGPRP | 0.765
45 | RRIRRRPPRLPRPRPRPLCYPRP | -0.236
46 | RRIRSRPPRLPRPRPRPRKAPRP | 0.0188

Row | Sequence | shrunken log2 fold change
47 | RRIRYRPPRLPRPRPRPDHTPRP | -0.11
48 | RRIRFRPPRLPRPRPRPHPPPRP | 1.27
49 | RRIRVRPPRLPRPRPRPDTPPRP | -0.0915
50 | RRIRCRPPRLPRPRPRPVSNPRP | 0.0201
51 | RRIRWRPPRLPRPRPRPRSEPRP | 0.0877
52 | RRIRERPPRLPRPRPRPLWEPRP | -0.281
53 | RRIRSRPPRLPRPRPRPVFIPRP | -0.598
54 | RRIRRRPPRLPRPRPRPRSMPRP | 0.468
55 | RRIRKRPPRLPRPRPRPNVKPRP | 0.0115
56 | RRIRGRPPRLPRPRPRPAHDPRP | 0.643
57 | RRIRKRPPRLPRPRPRPQEHPRP | 0.0487
58 | RRIRCRPPRLPRPRPRPSFFPRP | -0.552
59 | RRIRTRPPRLPRPRPRPPYEPRP | 0.0319
60 | RRIRIRPPRLPRPRPRPCKNPRP | -0.299
61 | RRIRCRPPRLPRPRPRPDIWPRP | 0.116
62 | RRIRCRPPRLPRPRPRPWRMPRP | -0.116
63 | RRIRCRPPRLPRPRPRPRLDPRP | 0.154
64 | RRIRMRPPRLPRPRPRPKIQPRP | 0.158
65 | RRIRFRPPRLPRPRPRPSPTPRP | 0.313
66 | RRIRNRPPRLPRPRPRPREMPRP | 0.0274
67 | RRIRCRPPRLPRPRPRPGNEPRP | -0.154
68 | RRIRPRPPRLPRPRPRPFGEPRP | 0.0159
69 | RRIRGRPPRLPRPRPRPVKEPRP | 0.604

Row | Sequence | shrunken log2 fold change
70 | RRIRKRPPRLPRPRPRPGMCPRP | 0.863
71 | RRIRTRPPRLPRPRPRPIAAPRP | 0.894
72 | RRIRARPPRLPRPRPRPRWQPRP | 0.361
73 | RRIRQRPPRLPRPRPRPMCKPRP | -0.0652
74 | RRIRDRPPRLPRPRPRPQWVPRP | -0.0468
75 | RRIRIRPPRLPRPRPRPPVFPRP | 0.0815
76 | RRIRGRPPRLPRPRPRPAPMPRP | 1.1
77 | RRIRCRPPRLPRPRPRPESAPRP | 0.703
78 | RRIRNRPPRLPRPRPRPMDQPRP | -0.01
79 | RRIRMRPPRLPRPRPRPGCSPRP | 0.815
80 | RRIRRRPPRLPRPRPRPDKHPRP | 0.157
81 | RRIRGRPPRLPRPRPRPFYVPRP | 0.0462
82 | RRIRFRPPRLPRPRPRPDWWPRP | -0.0896
83 | RRIRWRPPRLPRPRPRPRWKPRP | -0.0506
84 | RRIRNRPPRLPRPRPRPWMIPRP | -0.252
85 | RRIRARPPRLPRPRPRPWIPPRP | -0.161
86 | RRIRMRPPRLPRPRPRPSSQPRP | 0.212
87 | RRIRGRPPRLPRPRPRPNLWPRP | 0.671
88 | RRIRHRPPRLPRPRPRPTTWPRP | -0.182
89 | RRIRLRPPRLPRPRPRPKPRPRP | 0.729
90 | RRIRNRPPRLPRPRPRPNDRPRP | -0.218
91 | RRIRYRPPRLPRPRPRPTCHPRP | -1.16
